The values that follow come from the RNAGym collection of RNA variant scans (doi:10.1073/pnas.2313332121).

This sample holds only a part of the variants without activity. Where only a bound is given, the exact number is not on record here.

B1: TPR 5TU (parent)
chain: GGAUCUUCUCGAUCUAACAAAAAAGACAAAUCUGCCACAAAGCUUGAGAGCAUCUUCGGAUGCAGAGGCGGCAGCCUUCGGUGGCGCGAUAGCGCCAACGUUCUCAACUAUGACACGCAAAACGCGUGCUCCGUUGAAUGGAGUUUAUCAUG

The variants in this data set derive from B1. Briefly: polymerase ribozyme fitness, log enrichment relative to wild type (log ratio); higher = more active; in vitro selection for triplet polymerase activity. The gist of the method:
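Frozen incubation at −7 °C formed the core of a single, triplicate in vitro selection round applied to PCR-built, transcribed mutant libraries of each subunit of a heterodimeric triplet polymerase ribozyme. Extended constructs were gel-excised, captured with streptavidin beads and amplified by RT-PCR, and input and output libraries were Illumina-sequenced with a filter of ≥10 input reads and ≥1 read per output. Fitness is the logarithm of genotype enrichment relative to wild-type enrichment, with inverse-variance-weighted replicate averaging, and the logarithm is base 2.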
Regarding U9G G59U G68C G84U C105A G124A G133C A142C, the “polymerase ribozyme fitness (log ratio)” value was ≤ -4.2. Turning to A12C C87U, the “polymerase ribozyme fitness (log ratio)” value is -0.61. For the variant A12C A52G C93U U101C C105U, the “polymerase ribozyme fitness (log ratio)” value is -2.54. For the variant C10G U53A, the “polymerase ribozyme fitness (log ratio)” value is -3.48.

Turning to C10G A20U A28U C35U C51G A64C G84U C123U, the “polymerase ribozyme fitness (log ratio)” value was ≤ -4.2. For U9G C14U A29C C35A C87U G92A G94U A98U A137U, the “polymerase ribozyme fitness (log ratio)” value is ≤ -4.2. The figure for C10U G58A U109G is -3.43; for C10G G11U C79G G92U A110G C123G U130G A138G U146A it is ≤ -4.2. In the case of C10U C93U G117A A137C, the “polymerase ribozyme fitness (log ratio)” value is ≤ -4.2. Consider C10A A12U A28C A29C A107G, for which the “polymerase ribozyme fitness (log ratio)” value is ≤ -4.2. On to C10U U90G C116G, for which the “polymerase ribozyme fitness (log ratio)” value was -3.83. Regarding C10U A47C, the “polymerase ribozyme fitness (log ratio)” value is -3.19. The figure for A12G A16G A23U C38U C87U G141C G152A is ≤ -4.2; for G11A U61A G67C C87G G141U it is ≤ -4.2; for C10G C87U it is -3.38. As to U9G C75G C76A C85G, the “polymerase ribozyme fitness (log ratio)” value is ≤ -4.2. A12G A16U G42C C75U C129U: the “polymerase ribozyme fitness (log ratio)” value was ≤ -4.2.

For U9G A89U C95A, the “polymerase ribozyme fitness (log ratio)” value is ≤ -4.2.

U9G U56G G84U C87A U90G U109G U130C U139A: the “polymerase ribozyme fitness (log ratio)” value was ≤ -4.2. Turning to U9G A39G U53A G83C C87A C108G U151A, the “polymerase ribozyme fitness (log ratio)” value is ≤ -4.2. In the case of U9G C14G A24G U55A U139A, the “polymerase ribozyme fitness (log ratio)” value was ≤ -4.2. On to C10G A26U C43A G94C U127C G143U, for which the “polymerase ribozyme fitness (log ratio)” value was ≤ -4.2.

With A12C A30C A60G C75G G86U U90G A97C, the “polymerase ribozyme fitness (log ratio)” value was ≤ -4.2. Regarding G11U A26U U82A C93A, the “polymerase ribozyme fitness (log ratio)” value is ≤ -4.2. With G11A A137C C149U, the “polymerase ribozyme fitness (log ratio)” value was ≤ -4.2.

Consider U9C G11A A23U C36U C51A G92C G117C, for which the “polymerase ribozyme fitness (log ratio)” value is ≤ -4.2.

As to C10U A17U, the “polymerase ribozyme fitness (log ratio)” value was -3.22. Regarding C10U A17C, the “polymerase ribozyme fitness (log ratio)” value is -2.07. In the case of G11A A41C G83C C123G, the “polymerase ribozyme fitness (log ratio)” value is -2.58. Under U9G G141U stands -2.58; under A12C A21G A122G G140U, -4.13. As for C10G C87A C93U, the “polymerase ribozyme fitness (log ratio)” value was ≤ -4.2.

Regarding C10A G83C, the “polymerase ribozyme fitness (log ratio)” value was -3.94. For the variant C10A C76U, the “polymerase ribozyme fitness (log ratio)” value was -3.95. Turning to C10G A64C G70A A97U U144G A150U, the “polymerase ribozyme fitness (log ratio)” value was ≤ -4.2. The figure for C10U A23G C36A G58U A113U is ≤ -4.2. Consider G11U U31C U53A A66G C85A C87A, for which the “polymerase ribozyme fitness (log ratio)” value is ≤ -4.2.

With G11U A40U G84A C132A G143C, the “polymerase ribozyme fitness (log ratio)” value was ≤ -4.2. Consider C10G G84U, for which the “polymerase ribozyme fitness (log ratio)” value was -3.9. Under C10G A107C stands ≤ -4.2; under U9G G42C G58C C95U, ≤ -4.2.

Consider G11A A23C A29C A30U C36U U44A A73U G81A C125U G143U, for which the “polymerase ribozyme fitness (log ratio)” value is ≤ -4.2. Under C10U G83A stands -3.44; under G11A G86U C93G, -1.46. Turning to C10A C32G C38U C54U A142U, the “polymerase ribozyme fitness (log ratio)” value is -4.12. Turning to A12C C105G, the “polymerase ribozyme fitness (log ratio)” value was -2.6. Take C10U A21G G48A G83C G94U U144A: the “polymerase ribozyme fitness (log ratio)” value is ≤ -4.2. For the variant G11A U44A G48A C57U C96U, the “polymerase ribozyme fitness (log ratio)” value is ≤ -4.2. Regarding G11C U31A A40U, the “polymerase ribozyme fitness (log ratio)” value was -0.204.

Turning to G11U C85A G86U U134G A150G, the “polymerase ribozyme fitness (log ratio)” value is ≤ -4.2. The figure for C10U A29U A47U G84U C103A C116G U145G G152U is ≤ -4.2.

As for A12C G59A C75U C114U A150C, the “polymerase ribozyme fitness (log ratio)” value is ≤ -4.2.

U9C G88C A137C: the “polymerase ribozyme fitness (log ratio)” value was ≤ -4.2. On to G11U C27G C35A C95U C131G G152U, for which the “polymerase ribozyme fitness (log ratio)” value was -3.68.

Take A12C C35U A39G G59A C85A C87U: the “polymerase ribozyme fitness (log ratio)” value was ≤ -4.2. As to G11U G83A C96U, the “polymerase ribozyme fitness (log ratio)” value was -0.589.

As for G11U A29C C35U U45A A66G A91U, the “polymerase ribozyme fitness (log ratio)” value was -3.98. For A12C U56A G59C C96A U101C, the “polymerase ribozyme fitness (log ratio)” value was -0.609. Under A12C C85U stands -1.44. Regarding C10U A19U C35U C95U C99U, the “polymerase ribozyme fitness (log ratio)” value was ≤ -4.2.

As for C10G C18G A19C C87A A98U A115U G117U, the “polymerase ribozyme fitness (log ratio)” value was ≤ -4.2. For the variant G11U G58C G84U A97U, the “polymerase ribozyme fitness (log ratio)” value is -2.86. In the case of C10A A20G C38A U55A A60C, the “polymerase ribozyme fitness (log ratio)” value was ≤ -4.2. C10U C96A C125A: the “polymerase ribozyme fitness (log ratio)” value was -3.69. C10G C96U: the “polymerase ribozyme fitness (log ratio)” value is -2.78.

With C10G C96G, the “polymerase ribozyme fitness (log ratio)” value is -3.62. Regarding U9G C32A A40G A52G, the “polymerase ribozyme fitness (log ratio)” value was ≤ -4.2.

For the variant U9G U15A A30U U33G G42C U101A C105G A110U C118U A119G U139A A147C A150G, the “polymerase ribozyme fitness (log ratio)” value is ≤ -4.2. As for G11C A40G U82A G94C G140U, the “polymerase ribozyme fitness (log ratio)” value is ≤ -4.2. As for C10U C14U C54U C72U U78A C79U G94C A97U, the “polymerase ribozyme fitness (log ratio)” value was ≤ -4.2. For the variant G11U G94A G133C, the “polymerase ribozyme fitness (log ratio)” value was -2.79. Under C10U A17G A26U G46C U55A C85U A106U G126A G133C stands ≤ -4.2. The figure for C10A C51G A52C G59A C75G is ≤ -4.2; for C10U A39C U77A G84A C95U A120U it is ≤ -4.2; for C10G U55A U148A A150C it is ≤ -4.2. As to C10A A39U U55A C57A U90G G92A, the “polymerase ribozyme fitness (log ratio)” value is ≤ -4.2. For the variant G11A U55G U56A U102A, the “polymerase ribozyme fitness (log ratio)” value was -3.42. Under C10G U77C U90A A119G A137G stands ≤ -4.2. For C10U C18U A39U A49U U61A G68U U82G A110U G133A, the “polymerase ribozyme fitness (log ratio)” value was ≤ -4.2. On to C10G A19G A37G G42C C57U G59A C129A, for which the “polymerase ribozyme fitness (log ratio)” value was ≤ -4.2.

Consider U9C U31C A41C G48C A52U C93U C95A G140A, for which the “polymerase ribozyme fitness (log ratio)” value is ≤ -4.2. C10G C93A A97U C116U: the “polymerase ribozyme fitness (log ratio)” value was ≤ -4.2. Take G11C G25C A41C U78A C99G: the “polymerase ribozyme fitness (log ratio)” value is -4.09.
